Assays:
[1] = target: T1, PD-1 antigen stably expressed on the surface of BB007 cells (UniProt Q15116 25-288, limits assumed); test: flow cytometry on BB007 cells
T1 construct: whole, on cells; also called target protein PD-1 on the surface of the BB007 cell
Procedure: (§1) The binding efficiencies of H1L1, H2L2 and H3L3 antibodies to PD-1 antigen stably expressed on the surface of cells (named as BB007 cells) were determined by flow cytometry. The BB007 cells were obtained by routine trypsin digestion, and then washed with PBS buffer once, followed by dividing into several tubes, with 2×10⁵ cells per tube. After dilution into concentrations of 20 nM, 10 nM, 5 nM, 1 nM, 0.1 nM and 0 nM with the PBS buffer containing 1% BSA for each of the H1L1, H2L2 and H3L3 antibodies, individual antibodies in a volume of 100 μl were added into individual tubes and incubated on ice for 1 hour. After the mixture was washed with the PBS buffer once, 100 μl FITC-Goat-Anti-Human IgG (in 1:500 dilution) was added for each tube and incubated on ice for 1 hour, followed by addition of 300 μl the PBS buffer for detecting fluorescence signal with a FITC channel on the flow cytometer.

[2] = target: T1, PD-1 antigen stably expressed on the …; test: flow cytometry on BB007 cells; antibody 10 nM
Procedure: as §1

[3] = target: T2, PD-1-mIgGFc fusion protein; test: ELISA on coated PD-1-mFc; antibody 1 µg/ml diluted 1:9; replicate 1
T2 construct: also called PD-1-mFc; PD-1-mIgGFc antigen
Procedure: (§2) An ELISA plate was coated with PD-1-mFc antigen in a concentration of 0.5 μg/ml (50 μl per well) by incubation at 4° C. overnight.
(§3) After the ELISA plate was washed with the PBST buffer for three times and gently patted to dryness again, TMB as a developer in 50 μl per well was added for incubation at room temperature for 5 to 10 minutes.
(§4) The absorbance of solution in each well was measured with the microplate reader under a wavelength of 450 nm.

[4] = target: T2, PD-1-mIgGFc fusion protein; test: competitive ELISA on coated PD-1-mIgGFc; competitor PDL1-mIgG2aFc
Procedure: (§5) A 96-well ELISA plate was coated with PD-1-mIgGFc antigen in a concentration of 0.5 μg/ml (50 μl per well) by incubation at 4° C. overnight.
(§6) The 18A10 H1L1, 18A10 H2L2 and 18A10 H3L3 antibodies each were diluted from 3 μg/ml in series by 1:3, with 7 gradient antibody solutions obtained for each antibody. The 7 gradient antibody solutions for each antibody and the blank PBS control (50 μl per well) were respectively added into the blocked 96-well ELISA plate for incubation at room temperature for 10 minutes.

[5] = target: T2, PD-1-mIgGFc fusion protein; test: ELISA on coated PD-1-mFc; antibody 1 µg/ml diluted 1:243; replicate 2
Procedure: as §2
(§7) The ELISA plate coated with the PD-1-mFc antigen was blocked with 1% BSA in the PBS buffer at 37° C. for 2 hours, and washed with 1×PBST buffer containing 1% Tween-20 for three times, with gently patting to dryness.
as §4

[6] = target: T2, PD-1-mIgGFc fusion protein; test: ELISA on coated PD-1-mFc; antibody 1 µg/ml diluted 1:729; replicate 1
Procedure: as §2, §3, §4

[7] = target: T1, PD-1 antigen stably expressed on the …; test: flow cytometry on BB007 cells; antibody 5 nM
Procedure: as §1

[8] = target: T1, PD-1 antigen stably expressed on the …; test: flow cytometry on BB007 cells; antibody 0.1 nM
Procedure: as §1

[9] = target: T2, PD-1-mIgGFc fusion protein; test: ELISA on coated PD-1-mFc; antibody 1 µg/ml diluted 1:27; replicate 2
Procedure: as §2, §3, §4

[10] = target: T2, PD-1-mIgGFc fusion protein; test: competitive ELISA on coated PD-1-mIgGFc; competitor PDL1-mIgG2aFc 0.3 µg/ml; antibody 1.5 µg/ml; replicate 2
Procedure: as §5, §6, §4

[11] = target: T2, PD-1-mIgGFc fusion protein; test: competitive ELISA on coated PD-1-mIgGFc; competitor PDL1-mIgG2aFc 0.3 µg/ml; antibody 1.5 µg/ml diluted 1:27; replicate 2
Procedure: as §5, §6, §4

[12] = target: T2, PD-1-mIgGFc fusion protein; test: ELISA on coated PD-1-mFc; antibody 1 µg/ml diluted 1:81; replicate 1
Procedure: as §2, §7, §4

[13] = target: T2, PD-1-mIgGFc fusion protein; test: ELISA on coated PD-1-mFc; antibody 1 µg/ml; replicate 1
Procedure: as §2, §3, §4

[14] = target: T2, PD-1-mIgGFc fusion protein; test: ELISA on coated PD-1-mFc; antibody 1 µg/ml; replicate 2
Procedure: as §2, §3, §4

[15] = target: T2, PD-1-mIgGFc fusion protein; test: ELISA on coated PD-1-mFc; antibody 1 µg/ml diluted 1:3; replicate 1
Procedure: as §2, §3, §4

[16] = target: T2, PD-1-mIgGFc fusion protein; test: competitive ELISA on coated PD-1-mIgGFc; competitor PDL1-mIgG2aFc 0.3 µg/ml; antibody 1.5 µg/ml diluted 1:243; replicate 2
Procedure: as §5, §6
(§8) After the 96-well ELISA plate was washed with the PBST buffer for three times and gently patted to dryness, goat anti-mouse IgG-HRP (H+L) as a secondary antibody in 1:5000 dilution (50 μl per well) was added for incubation at 37° C. for 1 hour.

[17] = target: T2, PD-1-mIgGFc fusion protein; test: competitive ELISA on coated PD-1-mIgGFc; competitor PDL1-mIgG2aFc 0.3 µg/ml; antibody 1.5 µg/ml diluted 1:9; replicate 2
Procedure: as §5
[…] The 7 gradient antibody solutions for each antibody and the blank PBS control (50 μl per well) were respectively added into the blocked 96-well ELISA plate for incubation at room temperature for 10 minutes.
as §8

[18] = target: T2, PD-1-mIgGFc fusion protein; test: competitive ELISA on coated PD-1-mIgGFc; competitor PDL1-mIgG2aFc 0.3 µg/ml; antibody 1.5 µg/ml diluted 1:3; replicate 2
Procedure: as §5, §6, §8

[19] = target: T2, PD-1-mIgGFc fusion protein; test: competitive ELISA on coated PD-1-mIgGFc; competitor PDL1-mIgG2aFc 0.3 µg/ml; antibody 1.5 µg/ml diluted 1:81; replicate 1
Procedure: as §5, §6, §4

[20] = target: T2, PD-1-mIgGFc fusion protein; test: ELISA on coated PD-1-mFc; antibody 1 µg/ml diluted 1:27; replicate 1
Procedure: as §2, §3, §4

T2 sequence (chain, as listed by the source limits assumed): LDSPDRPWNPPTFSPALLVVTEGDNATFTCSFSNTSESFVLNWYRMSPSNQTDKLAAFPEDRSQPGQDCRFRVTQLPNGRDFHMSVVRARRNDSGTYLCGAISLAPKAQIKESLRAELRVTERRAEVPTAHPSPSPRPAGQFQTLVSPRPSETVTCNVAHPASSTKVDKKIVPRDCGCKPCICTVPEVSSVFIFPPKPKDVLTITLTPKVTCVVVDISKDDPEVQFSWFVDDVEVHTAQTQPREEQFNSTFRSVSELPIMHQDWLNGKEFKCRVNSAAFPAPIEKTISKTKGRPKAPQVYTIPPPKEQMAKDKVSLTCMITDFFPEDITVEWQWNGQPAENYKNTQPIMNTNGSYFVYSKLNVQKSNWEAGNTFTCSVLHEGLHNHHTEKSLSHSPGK
T1 sequence (Q15116 25-288 limits assumed): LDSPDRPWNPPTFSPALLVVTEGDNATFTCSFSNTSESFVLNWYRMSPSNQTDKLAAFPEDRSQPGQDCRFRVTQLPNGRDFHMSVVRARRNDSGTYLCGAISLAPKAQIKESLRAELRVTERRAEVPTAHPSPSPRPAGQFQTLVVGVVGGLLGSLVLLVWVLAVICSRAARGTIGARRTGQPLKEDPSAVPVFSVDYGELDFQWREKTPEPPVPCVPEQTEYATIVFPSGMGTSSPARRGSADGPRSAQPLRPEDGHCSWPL

| EC50 [1] [nM] | fluorescence intensity [2] | absorbance at 450 nm [3] | EC50 [4] [nM] | absorbance at 450 nm [5] | absorbance at 450 nm [6] | fluorescence intensity [7] | fluorescence intensity [8] | absorbance at 450 nm [9] | absorbance at 450 nm (competition) [10] | absorbance at 450 nm (competition) [11] | absorbance at 450 nm [12] | absorbance at 450 nm [13] | absorbance at 450 nm [14] | absorbance at 450 nm [15] | absorbance at 450 nm (competition) [16] | absorbance at 450 nm (competition) [17] | absorbance at 450 nm (competition) [18] | absorbance at 450 nm (competition) [19] | absorbance at 450 nm [20] | Binder |
| --- | --- | --- | --- | --- | --- | --- | --- | --- | --- | --- | --- | --- | --- | --- | --- | --- | --- | --- | --- | --- |
| 1.59 | 349 | 2.18 | 0.838 | 0.475 | 0.226 | 321 | 19.1 | 1.63 | 0.102 | 0.903 | 1.04 | 2.36 | 2.43 | 2.13 | 1.21 | 0.506 | 0.097 | 1.09 | 1.78 | humanized antibody 18A10 H2L2 (antibody, V domains shown, also called H2L2 antibody) VH: EVQLVQSGGGLVQPGGSLKLSCAASGFTFSSYGMSWVRQAPGKGLDWVATISGGGRDTYYPDSVKGRFTISRDNSKNNLYLQMNSLRAEDTALYYCARQKGEAWFAYWGQGTLVTVSS VL: not shown |
| 3.38 | 316 | 1.96 | 0.992 | 0.431 | 0.186 | 252 | 19 | 1.65 | 0.107 | 1.04 | 0.883 | 2.47 | 2.32 | 2.35 | 1.21 | 0.586 | 0.109 | 1.29 | 1.62 | humanized antibody 18A10 H1L1 (antibody, V domains shown, also called H1L1 antibody) VH: EVQLVQSGGGLVQPGGSLKLSCAASGFTFSSYGMSWVRQTPEKGLDWVATISGGGRDTYYPDSVKGRFTISRDNSKNNLYLQMNSLRAEDTALYYCARQKGEAWFAYWGQGTLVTVSS VL: not shown |
| 1.68 | 386 | 1.95 | 1.19 | 0.377 | 0.2 | 343 | 21.2 | 1.5 | 0.102 | 0.986 | 0.928 | 2.14 | 2.44 | 2.29 | 1.21 | 0.678 | 0.108 | 1.09 | 1.58 | humanized antibody 18A10 H3L3 (antibody, V domains shown, also called H3L3 antibody) VH: EVQLVQSGGGLVQPGGSLKLSCAASGFTFSSYGMSWVRQAPGKGLDWVATISGGGRDTYYPDSVKGRFTISRDNSKNTLYLQMNSLRAEDTAVYYCARQKGEAWFAYWGQGTLVTVSS VL: DIVLTQSPASLAVSPGQRATITCRASESVDNYGISFMNWYQQKPGQPPKLLIYAASNKATGVPARFSGSGSGTDFTLNINPMEANDTAVYFCQQSKEVPWTFGGGTKLEIK |

Reference: patent US20190040138A1 (AKESO BIOPHARMA, published 2019)
